Target: Myc transcription factor (UniProt P01106)
Test: cell-based or functional assay

Sequence of HTLV-1 p30^II (HA) (P0C214 whole entry): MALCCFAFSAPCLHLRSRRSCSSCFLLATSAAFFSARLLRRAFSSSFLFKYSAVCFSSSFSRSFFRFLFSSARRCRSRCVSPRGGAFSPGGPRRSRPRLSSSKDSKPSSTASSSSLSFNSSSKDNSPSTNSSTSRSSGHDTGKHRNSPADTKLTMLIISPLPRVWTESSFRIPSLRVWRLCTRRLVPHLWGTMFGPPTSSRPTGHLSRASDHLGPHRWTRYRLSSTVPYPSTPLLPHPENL
Sequence of UniProt P01106 (P01106 16-454 limits assumed): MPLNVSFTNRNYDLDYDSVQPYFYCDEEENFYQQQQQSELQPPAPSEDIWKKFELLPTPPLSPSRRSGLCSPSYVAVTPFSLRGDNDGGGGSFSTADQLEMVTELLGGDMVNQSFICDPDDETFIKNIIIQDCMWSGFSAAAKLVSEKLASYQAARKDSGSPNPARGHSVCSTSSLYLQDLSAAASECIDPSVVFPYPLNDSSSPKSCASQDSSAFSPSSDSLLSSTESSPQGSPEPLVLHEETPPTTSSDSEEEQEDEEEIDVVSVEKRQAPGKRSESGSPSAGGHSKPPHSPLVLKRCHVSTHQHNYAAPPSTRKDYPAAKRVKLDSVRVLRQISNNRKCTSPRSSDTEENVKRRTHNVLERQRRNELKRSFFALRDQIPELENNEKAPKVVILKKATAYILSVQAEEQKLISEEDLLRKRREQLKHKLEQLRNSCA

HTLV-1 p30^II (HA) was tested, and the trans-activation from the synthetic M4-tk-luc promoter (luciferase reporter, four tandem E-boxes) was 13 fold and the trans-activation from the synthetic M4-tk-luc promoter (luciferase reporter, four tandem E-boxes), higher p30^II concentrations was 5 to 7 fold.

— patent publication US20050186604A1
